Test results from PMC3988464.
Read-outs that look alike come from different tables or passages of the source.

Key:
[1] = molecular target: CXCR2 (Homo sapiens) (UniProt P25025); details: cited from earlier work
[2] = molecular target: CXCL8 (Homo sapiens) (UniProt P10145); details: cited from earlier work
[3] = molecular target: Wild type CXCL8 (human); experiment: SPR
[4] = molecular target: Wild type CXCL8 (human); experiment: SPR; remark: listed apart in the source
[5] = molecular target: Wild type CXCL8 (human)
[6] = molecular target: Isolated Link module of human TSG-6 (Link_TSG6) (human) (UniProt P98066); experiment: SPR
Chain of Isolated Link module of human TSG-6 (Link_TSG6) (human) (P98066 36-129): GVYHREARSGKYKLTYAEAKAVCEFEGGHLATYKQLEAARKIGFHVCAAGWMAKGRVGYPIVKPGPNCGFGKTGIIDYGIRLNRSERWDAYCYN

[7] = molecular target: Isolated Link module of human TSG-6 (Link_TSG6) (human) (UniProt P98066); experiment: SPR; remark: listed apart in the source

Chain of Full-length, wild type recombinant human TSG-6 (P98066 18-277): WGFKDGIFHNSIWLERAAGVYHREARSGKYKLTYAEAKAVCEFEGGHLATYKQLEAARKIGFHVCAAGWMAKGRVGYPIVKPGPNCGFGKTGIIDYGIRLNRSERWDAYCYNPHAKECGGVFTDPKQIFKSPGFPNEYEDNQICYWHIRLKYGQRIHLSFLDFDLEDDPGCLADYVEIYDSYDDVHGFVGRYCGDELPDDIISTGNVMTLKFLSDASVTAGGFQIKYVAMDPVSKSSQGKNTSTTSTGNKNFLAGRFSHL
Chain of CXCR2 (Homo sapiens) (P25025 whole entry): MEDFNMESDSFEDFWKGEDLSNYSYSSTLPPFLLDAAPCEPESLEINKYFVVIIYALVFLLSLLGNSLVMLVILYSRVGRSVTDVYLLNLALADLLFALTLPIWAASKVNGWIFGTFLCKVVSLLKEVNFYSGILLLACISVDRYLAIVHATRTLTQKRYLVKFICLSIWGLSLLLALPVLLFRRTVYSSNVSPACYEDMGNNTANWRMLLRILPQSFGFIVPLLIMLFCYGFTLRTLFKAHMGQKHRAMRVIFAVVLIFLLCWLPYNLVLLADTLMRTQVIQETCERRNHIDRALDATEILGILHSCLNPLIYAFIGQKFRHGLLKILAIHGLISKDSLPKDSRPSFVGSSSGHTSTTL
Chain of Isolated Link module of human TSG-6 (Link_TSG6) (P98066 36-129): as the sequence (P98066 36-129) above
Chain of Evasin-3 (P0C8E8 21-86): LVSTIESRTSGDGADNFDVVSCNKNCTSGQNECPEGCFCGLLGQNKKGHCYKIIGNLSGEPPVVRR
Chain of CXCL8 (Homo sapiens) (P10145 28-99): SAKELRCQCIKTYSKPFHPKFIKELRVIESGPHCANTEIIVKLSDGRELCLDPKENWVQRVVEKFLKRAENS
Chain of CXCL8 (P10145 28-99): as above

**Q.** For CXCL8 (from UniProt P10145), which Kd [1] is on record?
**A.** 1 nM

**Q.** Which Kd [2] does the source give for Evasin-3 (from UniProt P0C8E8) here?
**A.** 1 nM

**Q.** For “Full-length, wild type recombinant human TSG-6 (from UniProt P98066 18-277) (natural protein)”, which Kd [3] is on record?
**A.** 20 nM

**Q.** What about the Kd [4] of the same substance?
**A.** 74 nM

**Q.** For “Isolated Link module of human TSG-6 (Link_TSG6) (from UniProt P98066 36-129) (domain or fragment)”, which inhibition of CXCL8-induced neutrophil trans-migration (Transwell) [5] is on record?
**A.** 10 nM

**Q.** Which Kd [6] does the source give for Wild type CXCL8 (ligand) here?
**A.** 6 nM

**Q.** And the koff [6]?
**A.** 0.00032 s⁻¹

**Q.** And the Kd [7]?
**A.** 21 nM

**Q.** What about the koff [7] of the same substance?
**A.** 0.0011 s⁻¹
